Assay results as given in patent US20220177587A1, “METHODS AND USES OF VARIANT CD80 FUSION PROTEINS AND RELATED CONSTRUCTS” (Alpine Immune Sciences, Inc., priority 2018, published 2022).
Where a chain is given by its changes, count along the chain named. In names and notes the source's numbering stands.

B1: E35D/M47I/N48K/I61F (protein)
chain: VIHVTKEVKEVATLSCGHNVSVEELAQTRIYWQKDKKMVLTMMSGDIKIWPEYKNRTIFDFTNNLSIVILALRPSDEGTYECVVLKYEKDAFKREHLAEVTLSVKAD
B2: Q27H/E35D/M47I (protein)
chain: B1 chain with Q27H, K48N, F61I
B3: E35D/M47L/A71G/L85M (protein)
chain: B1 chain with I47L, K48N, F61I, A71G, L85M
B4: E35D/D46E/A91G (protein)
chain: B1 chain with D46E, I47M, K48N, F61I, A91G
B5: E35D/T41S/N48T (protein)
chain: B1 chain with T41S, I47M, K48T, F61I
B6: Q27L/E35D/M47V/I61V/L85M (protein)
chain: B1 chain with Q27L, I47V, K48N, F61V, L85M
B7: E35D/D46E/M47I (protein)
chain: B1 chain with D46E, K48N, F61I
B8: E35D/D46E/L85M (protein)
chain: B1 chain with D46E, I47M, K48N, F61I, L85M
B9: E35D/M47V (protein)
chain: B1 chain with I47V, K48N, F61I
B10: M43I/M47L/A71G (protein)
chain: B1 chain with D35E, M43I, I47L, K48N, F61I, A71G
B11: H18Y/E35D (protein)
chain: B1 chain with H18Y, I47M, K48N, F61I
B12: V22A/E35D/M47L/A71G (protein)
chain: B1 chain with V22A, I47L, K48N, F61I, A71G
B13: E35D/D46E (protein)
chain: B1 chain with D46E, I47M, K48N, F61I
B14: E35D/M43I/M47L/V68M (protein, UniProt P33681 35-288, looked up, variant E35D M43I M47L V68M)
T-lymphocyte activation …: VIHVTKEVKEVATLSCGHNVSVEELAQTRIYWQKDKKMVLTMISGDLNIWPEYKNRTIFDITNNLSIMILALRPSDEGTYECVVLKYEKDAFKREHLAEVTLSVKADFPTPSISDFEIPTSNIRRIICSTSGGFPEPHLSWLENGEELNAINTTVSQDPETELYAVSSKLDFNMTTNHSFMCLIKYGHLRVNQTFNWNTTKQEHFPDNLLPSWAITLISVNGIFVICCLTYCFAPRCRERRRNERLRRESVRPV

Target: T1, CD28 (Homo sapiens, UniProt P10747)
Assay: Flow binding to Jurkat/IL2 reporter cells (CD28)
Parameters: host or cells: Jurkat cells expressing an IL-2-luciferase reporter
Conditions: Table E10; 33.3 nM; Jurkats (CD28)
Procedure, shortened: (§1)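 Cells were first blocked in PBS with 1% BSA and 0.1% sodium azide. Primary staining with fusion protein ran 45 min on ice, and secondary staining with PE anti-human Fc at 1:150 ran 30 min on ice.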

Row | Molecule | CD28 MFI at 33.3 nM
1 | B1 | 816
2 | B2 | 756
3 | B3 | 199
4 | B4 | 3450
5 | B5 | 72.4
6 | B6 | 230
7 | B7 | 1001
8 | B8 | 164
9 | B9 | 461
10 | B10 | 1000
11 | B11 | 479
12 | B12 | 990
13 | B13 | 779

Same assay, conditions: Table E10; 33.3 nM; relative to CD80 WT IgV-Fc

Row | Molecule | CD28 Fold change to WT CD80
14 | B1 | 12.4
15 | B2 | 11.5
16 | B3 | 3.0
17 | B4 | 52.3
18 | B5 | 1.1
19 | B6 | 3.5
20 | B7 | 15.2
21 | B8 | 2.5
22 | B9 | 7.0
23 | B10 | 15.2
24 | B11 | 7.3
25 | B12 | 15.0
26 | B13 | 11.8

Same assay, conditions: Table E11; 33.3 nM; listed as WT CD80 ECD-Fc = 1.0

Row | Molecule | CD28 Fold change to WT CD80
27 | B14 | 48.3

Same assay, conditions: Table E11; Jurkats (CD28); 33.3 nM

Row | Molecule | CD28 MFI at 33.3 nM
28 | B14 | 1517

Same assay, conditions: Table E19; Jurkats (CD28); 33.3 nM

Row | Molecule | CD28 MFI at 33.3 nM
29 | B9 | 501

Same assay, conditions: Table E19; MFI at 33.3 nM relative to WT CD80 ECD-Fc (Abcam)

Row | Molecule | CD28 Fold change to WT CD80 [fold]
30 | B9 | 0.7

Target: huPD-L1 (Homo sapiens, UniProt Q9NZQ7)
Sequence (Q9NZQ7 19-290): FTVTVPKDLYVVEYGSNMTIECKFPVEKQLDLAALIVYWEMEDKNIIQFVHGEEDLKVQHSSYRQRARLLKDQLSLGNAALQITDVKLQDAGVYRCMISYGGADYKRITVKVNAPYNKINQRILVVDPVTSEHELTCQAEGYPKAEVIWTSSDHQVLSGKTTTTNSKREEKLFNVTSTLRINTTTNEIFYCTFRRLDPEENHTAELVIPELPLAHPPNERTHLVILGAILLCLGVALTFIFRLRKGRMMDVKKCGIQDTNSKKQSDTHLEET
Assay: Flow binding to CHO cells stably expressing PD-L1
Parameters: huCTLA4 and huPD-L1, full-length mammalian surface expression constructs were generated; expressed in transfected cells; host or cells: CHO cells, lentiviral transduction, sorted to >98% purity
Conditions: Table E10; 33.3 nM; CHO cells stably expressing PD-L1
Procedure, shortened: as §1

Row | Molecule | PD-L1 MFI at 33.3 nM
31 | B1 | 5627
32 | B2 | 3424
33 | B3 | 8312
34 | B4 | 2818
35 | B5 | 2191
36 | B6 | 2705
37 | B7 | 3789
38 | B8 | 2880
39 | B9 | 2935
40 | B10 | 7763
41 | B11 | 3526
42 | B12 | 8168
43 | B13 | 3757

Same assay, conditions: Table E10; 33.3 nM; relative to CD80 WT IgV-Fc

Row | Molecule | PD-L1 Fold change to WT CD80
44 | B1 | 80.0
45 | B2 | 48.7
46 | B3 | 118.2
47 | B4 | 40.1
48 | B5 | 31.2
49 | B6 | 38.5
50 | B7 | 53.9
51 | B8 | 41.0
52 | B9 | 41.7
53 | B10 | 110.4
54 | B11 | 50.2
55 | B12 | 116.2
56 | B13 | 53.4

Same assay, conditions: Table E10; binding to PD-L1 compared to binding to CD28

Row | Molecule | Ratio of PDL1:CD28
57 | B1 | 7
58 | B2 | 5
59 | B3 | 42
60 | B4 | 1
61 | B5 | 30
62 | B6 | 12
63 | B7 | 4
64 | B8 | 18
65 | B9 | 6
66 | B10 | 8
67 | B11 | 7
68 | B12 | 8
69 | B13 | 5

Same assay, conditions: Table E11; 33.3 nM; listed as WT CD80 ECD-Fc = 1.0

Row | Molecule | PD-L1 Fold change to WT CD80
70 | B14 | 328.4

Same assay, conditions: Table E11; CHO cells stably expressing PD-L1; 33.3 nM

Row | Molecule | PD-L1 MFI at 33.3 nM
71 | B14 | 16912

Same assay, conditions: Table E11; MFI at 33.3 nM

Row | Molecule | Ratio of PDL1:CD28
72 | B14 | 11.1

Same assay, conditions: Table E19; CHO cells stably expressing PD-L1; 33.3 nM

Row | Molecule | PD-L1 MFI at 33.3 nM
73 | B9 | 6796

Same assay, conditions: Table E19; MFI at 33.3 nM relative to WT CD80 ECD-Fc (Abcam)

Row | Molecule | PD-L1 Fold change to WT CD80 [fold]
74 | B9 | 53.1

Same assay, conditions: Table E19; ratio of MFI at 33.3 nM

Row | Molecule | Ratio of PDL1:CD28
75 | B9 | 13.6

Target: huCTLA4 (Homo sapiens, UniProt P16410)
Sequence (P16410 36-223): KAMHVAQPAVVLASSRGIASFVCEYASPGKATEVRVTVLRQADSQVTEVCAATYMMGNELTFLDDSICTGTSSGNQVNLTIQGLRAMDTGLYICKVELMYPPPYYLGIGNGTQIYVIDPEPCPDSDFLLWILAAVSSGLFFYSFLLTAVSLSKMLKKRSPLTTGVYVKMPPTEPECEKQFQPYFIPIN
Assay: Flow binding to CHO cells stably expressing CTLA4
Parameters: huCTLA4 and huPD-L1, full-length mammalian surface expression constructs were generated; expressed in transfected cells; host or cells: CHO cells, lentiviral transduction, sorted to >98% purity
Conditions: Table E10; 33.3 nM; CHO cells stably expressing CTLA4
Procedure, shortened: as §1

Row | Molecule | CTLA4 MFI at 33.3 nM
76 | B1 | 25859
77 | B2 | 27530
78 | B3 | 16609
79 | B4 | 32189
80 | B5 | 30262
81 | B6 | 27881
82 | B7 | 21394
83 | B8 | 30289
84 | B9 | 20893
85 | B10 | 23292
86 | B11 | 26258
87 | B12 | 21855
88 | B13 | 27921

Same assay, conditions: Table E10; 33.3 nM; relative to CD80 WT IgV-Fc

Row | Molecule | CTLA4 Fold change to WT CD80
89 | B1 | 13.5
90 | B2 | 14.4
91 | B3 | 8.7
92 | B4 | 16.8
93 | B5 | 15.8
94 | B6 | 14.6
95 | B7 | 11.2
96 | B8 | 15.8
97 | B9 | 10.9
98 | B10 | 12.2
99 | B11 | 13.7
100 | B12 | 11.4
101 | B13 | 14.6

Same assay, conditions: Table E11; 33.3 nM; listed as WT CD80 ECD-Fc = 1.0

Row | Molecule | CTLA4 Fold change to WT CD80
102 | B14 | 9.3

Same assay, conditions: Table E11; CHO cells stably expressing CTLA4; 33.3 nM

Row | Molecule | CTLA4 MFI at 33.3 nM
103 | B14 | 16243

Same assay, conditions: Table E19; CHO cells stably expressing CTLA4; 33.3 nM

Row | Molecule | CTLA4 MFI at 33.3 nM
104 | B9 | 44569

Same assay, conditions: Table E19; MFI at 33.3 nM relative to WT CD80 ECD-Fc (Abcam)

Row | Molecule | CTLA4 Fold change to WT CD80 [fold]
105 | B9 | 1.1

Target: T1, CD28
Assay: Jurkat/IL2 + CHO/OKT3 +/- PD-L1 reporter assay: PD-L1-dependent CD28 costimulation
Format: cell-based
Parameters: host or cells: Jurkat cells expressing an IL-2-luciferase reporter
Conditions: Table E12; Jurkat/IL2 + CHO/OKT3/PD-L1; 5.0 nM
Procedure, shortened: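 Readout is relative luminescence from lysed cocultures: test protein given 15 min at room temperature to Jurkat cells before adding CHO artificial APCs displaying OKT3 alone or OKT3 plus PD-L1, then 5 h at 37 °C, 5% CO2.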

Row | Molecule | Fold Increase over WT CD80-IgV-Fe | Relative Luciferase Units (RLU), CD80 Cone 5.0 nM [RLU]
106 | B1 | 5.2 | 2078
107 | B2 | 4.6 | 1829
108 | B3 | 3.8 | 1513
109 | B4 | 1.0 | 395
110 | B5 | 2.8 | 1136
111 | B6 | 2.9 | 1166
112 | B7 | 4.8 | 1915
113 | B8 | 3.5 | 1413
114 | B9 | 3.4 | 1353
115 | B10 | 4.1 | 1641
116 | B11 | 5.0 | 1990
117 | B12 | 6.5 | 2583
118 | B13 | 4.9 | 1961

Same assay, conditions: Table E13; Jurkat/IL2 + CHO/OKT3/PD-L1; 5.0 nM

Row | Molecule | Fold Increase over WT CD80-IgV-Fe | Relative Luciferase Units (RLU), CD80 Cone 5.0 nM [RLU]
119 | B14 | 2.7 | 1072

Same assay, conditions: Table E21; Jurkat/IL2 + CHO/OKT3/PD-L1; 5.0 nM

Row | Molecule | Fold Increase over WT CD80-IgV-Fe [fold]
120 | B9 | 4.7

Same assay, conditions: Table E21; Jurkat/IL2 + CHO/OKT3/PD-L1; CD80 Conc 5.0 nM

Row | Molecule | Relative Luciferase Units (RLU), CD80 Conc 5.0 nM [RLU]
121 | B9 | 543
